Measured values taken from US20240391991A1, “MODULATION OF WNT SIGNALLING IN PULMONARY DISORDERS” (Surrozen Operating, Inc., priority 2021, published 2024).
“Also recorded” adds a separate entry of the source.

What was measured:
[1] = system: acute bleomycin mouse model; test: Bleomycin-induced acute lung injury (fibrosis) mouse model; format: in vivo; details: for fibrosis score (Modified Ashcroft) / percentage of lung area affected by fibrosis: agent alone, dosed four times between week 1 and week 3, vs anti-GFP; for fibrosis score (Modified Ashcroft): FIGS. 10-12; for percentage of lung area affected by fibrosis: FIGS. 10-11
Excerpt: The acute lung injury (single bleomycin treatment; FIG. 1) and chronic intermittent/low dose bleomycin mouse models (FIG. 2) were used to determine the therapeutic effects of Wnt antagonist and agonist (administered concurrently or sequentially or individually) in combination with or without anti-fibrotic drugs (e.g., pirfenidone and nintedanib) to assess effects on anti-fibrotic and improved respiratory functions (see, e.g., Degryse, A. et al. (2010) Am J Physiol Lung Cell Mol Physiol. 299:442-52). Improvement of fibrosis was observed upon treatment with a WNT agonist, SWAP5 (see, e.g., FIG. 7, FIG. 10). Specifically, bleomycin was administered intratracheally to the mice at day 0, and animals were treated twice weekly with an agonist approach—combination of SWAP5 (FZD1,2,5,7,8 multi-FZD-specific SWAP) and RSPO2 (combo)—for two weeks starting at day 7 until termination at day 21. […] Improvement of fibrosis was also observed upon treatment with a Wnt agonist or the Wnt signaling enhancer RSPO2 alone (FIG. 10).

human AT2 cell organoid [2] = test: Human AT2 cell organoid growth, CellTiter Glo assay; format: cell-based; details: for human AT2 culture growth: RSPO alone, Wnt signaling inhibitor C59 present
Method: For ex vivo studies, 3D organoid cultures (see, e.g., Zacharias, W. et al. (2018) Nature 555:251-257 and Barkauskas et al. (2017) Development 144:986-997) were constructed by combining primary human lung fibroblasts from healthy, pulmonary fibrosis, or COPD patients with alveolar epithelial cells (AT2 and AEP cells) from patients. Organoids were cultured in SAGM medium with growth factor free Matrigel. The Wnt antagonist and agonist were added in a sequential or concurrent manner to determine the effect on the fibroblast/myofibroblast proliferation, matrix production, alveolar epithelial cell proliferation and AT1/AT2 cell fate trans-differentiation. Alveolar organoids can also be cultured directly from human distal lung cells including purified AT2 cells (Kobayashi et al., (2020) supra).
In all of the AT2 cell organoid experiments, the Wnt signaling inhibitor, C59, was used to prevent endogenous secretion of Wnt ligands. […] AT2 cell organoid growth was assessed with the CellTiter Glo assay.

human AT2 cell organoid [3] = test: Human AT2 organoid size (diameter, microscopy); format: cell-based; details: in the absence of RSPO; C59 present; FIG. 6
[4] = combination of SWAP5 and RSPO2 (combo), twice weekly day 7 to day 21, FIG. 7

Row | Molecule | fibrosis score (Modified Ashcroft) [1] | human AT2 culture growth (human AT2 cell organoid [2]) | percentage of lung area affected by fibrosis [1] | also measured
1 | SWAP6: FZD1,2,7-specific Wnt agonist; anti-FZD antibody with LRP6 VHH on light chain N-terminus; SEQ ID NO: 12 and 11 (protein) chain 1: QVQLQQWGAGLLKPSETLSLTCAVSGASFSGHYWTWIRQPPGKGLEWIGEIDHTGSTNYEPSLRSRVTISVDTSKNQFSLNLKSVTAADTAVYYCARGGQGGYDWGHYHGLDVWGQGTTVTVSSASTKGPSVFPLAPSSKSTSGGTAALGCLVKDYFPEPVTVSWNSGALTSGVHTFPAVLQSSGLYSLSSVVTVPSSSLGTQTYICNVNHKPSNTKVDKKVEPKSCDKTHTCPPCPAPEAAGGPSVFLFPPKPKDTLMISRTPEVTCVVVDVSHEDPEVKFNWYVDGVEVHNAKTKPREEQYNSTYRVVSVLTVLHQDWLNGKEYKCKVSNKALGAPIEKTISKAKGQPREPQVYTLPPSREEMTKNQVSLTCLVKGFYPSDIAVEWESNGQPENNYKTTPPVLDSDGSFFLYSKLTVDKSRWQQGNVFSCSVMHEALHNHYTQKSLSLSPGK chain 2: DVQLVESGGGLVQAGGSLRLACAGSGRIFAIYDIAWYRHPPGNQRELVAMIRPVVTEIDYADSVKGRFTISRNNAMKTVYLQMNNLKPEDTAVYYCNAKRPWGSRDEYWGQGTQVTVSSGSGSGSYVLTQPPSVSVSPGQTASITCSGDKVGHKYASWYQQKPGQSPVLVIYEDSQRPSGIPVRFSGSNSGNTATLTISGTQAMDEADYYCQAWDSSTDVVFGGGTKLTVLGQPKAAPSVTLFPPSSEELQANKATLVCLISDFYPGAVTVAWKADSSPVKAGVETTTPSKQSNNKYAASSYLSLTPEQWKSHRSYSCQVTHEGSTVEKTVAPTECS | caused a trend of reduction in the extent of fibrosis | – | – | –
2 | RSPO2: the Wnt signaling enhancer RSPO2 (R-spondin 2) (protein, UniProt Q6UXX9 22-243, looked up) R-spondin-2: QGNRWRRSKRASYVSNPICKGCLSCSKDNGCSRCQQKLFFFLRREGMRQYGECLHSCPSGYYGHRAPDMNRCARCRIENCDSCFSKDFCTKCKVGFYLHRGRCFDECPDGFAPLEETMECVEGCEVGHWSEWGTCSRNNRTCGFKWGLETRTRQIVKKPVKDTILCPTIAESRRCKMTMRHCPGGKRTPKAKEKRNKKKKRKLIERAQEQHSVFLATDRANQ | reduced the fibrosis score; also recorded: lower the severity of fibrosis | did not enhance human AT2 culture growth | reduced the fibrosis score and percentage of lung area affected; also recorded: reduce the area of the lung that is fibrotic | –
3 | SWAP5: FZD-1,2,5,7,8-specific Wnt agonist; anti-FZD antibody with LRP6 VHH on light chain N-terminus; SEQ ID NO: 1 and 2 (protein) chain 1: EVQLVQSGAEVKKPGASVKVSCKASGYTFTSYGISWVRQAPGQGLEWMGWISAYNGNTNYAQKLQGRVTMTTDTSTSTAYMELRSLRSDDTAVYYCASSKEKATYYYGMDVWGQGTTVTVSSASTKGPSVFPLAPSSKSTSGGTAALGCLVKDYFPEPVTVSWNSGALTSGVHTFPAVLQSSGLYSLSSVVTVPSSSLGTQTYICNVNHKPSNTKVDKKVEPKSCDKTHTCPPCPAPEAAGGPSVFLFPPKPKDTLMISRTPEVTCVVVDVSHEDPEVKFNWYVDGVEVHNAKTKPREEQYNSTYRVVSVLTVLHQDWLNGKEYKCKVSNKALGAPIEKTISKAKGQPREPQVYTLPPSREEMTKNQVSLTCLVKGFYPSDIAVEWESNGQPENNYKTTPPVLDSDGSFFLYSKLTVDKSRWQQGNVFSCSVMHEALHNHYTQKSLSLSPGK chain 2: DVQLVESGGGLVQAGGSLRLACAGSGRIFAIYDIAWYRHPPGNQRELVAMIRPVVTEIDYADSVKGRFTISRNNAMKTVYLQMNNLKPEDTAVYYCNAKRPWGSRDEYWGQGTQVTVSSGSGSGQAVVLQEPSLSVSPGGTVTLTCGLSSGSVSTNYYPSWYQQTPGQAPRTLIYYTNTRSSDVPERFSGSIVGNKAALTITGAQPDDESVYFCLLYLGRGIWVFGGGTKLTVLGQPKAAPSVTLFPPSSEELQANKATLVCLISDFYPGAVTVAWKADSSPVKAGVETTTPSKQSNNKYAASSYLSLTPEQWKSHRSYSCQVTHEGSTVEKTVAPTECS | reduced the fibrosis score; also recorded: lower the severity of fibrosis | – | reduced the fibrosis score and percentage of lung area affected; also recorded: reduce the area of the lung that is fibrotic | area (percent) of lung affected by fibrosis [1, 4]: reduction in the degree of fibrosis severity and the area of the lung affected by fibrosis; also recorded: reduce the area of the lung that is fibrotic; fibrosis severity (fibrosis score) [1, 4]: reduction in the degree of fibrosis severity; also recorded: lower the severity of fibrosis
4 | SWAP4: FZD4-mono-specific Wnt agonist; anti-FZD antibody with LRP6 binder; heavy/light chains SEQ ID NO: 9 and 10 (antibody) heavy: EVQLVESGGGLVQPGGSLRLSCAASGFTFTSYYISWVRQAPGKGLEWVAEISPYSGSTYYADSVKGRFTISADTSKNTAYLQMNSLRAEDTAVYYCALRARPPIRLHPRGSVMDYWGQGTLVTVSSGGGGSGGGGSGGGGSEVQLVESGGGLVQPGGSLRLSCAASGFNISYYYIHWVRQAPGKGLEWLASIYPSSGYTYYADSVKGRFTISADTSKNTAYLQMNSLRAEDTAVYYCARSSFYWAMDYWGQGTLVTVSSASTKGPSVFPLAPSSKSTSGGTAALGCLVKDYFPEPVTVSWNSGALTSGVHTFPAVLQSSGLYSLSSVVTVPSSSLGTQTYICNVNHKPSNTKVDKKVEPKSCDKTHTCPPCPAPEAAGGPSVFLFPPKPKDTLMISRTPEVTCVVVDVSHEDPEVKFNWYVDGVEVHNAKTKPREEQYNSTYRVVSVLTVLHQDWLNGKEYKCKVSNKALGAPIEKTISKAKGQPREPQVYTLPPSREEMTKNQVSLTCLVKGFYPSDIAVEWESNGQPENNYKTTPPVLDSDGSFFLYSKLTVDKSRWQQGNVFSCSVMHEALHNHYTQKSLSLSPGK light: DIQMTQSPSSLSASVGDRVTITCRASQDVSTAVAWYQQKPGKAPKLLIYSASFLYSGVPSRFSGSGSGTDFTLTISSLQPEDFATYYCQQSYTTPPTFGQGTKVEIKGGGGSGGGGSGGGGSDIQMTQSPSSLSASVGDRVTITCRASQSVSSAVAWYQQKPGKAPKLLIYSASSLYSGVPSRFSGSRSGTDFTLTISSLQPEDFATYYCQQSYAAYLFTFGQGTKVEIKRTVAAPSVFIFPPSDEQLKSGTASVVCLLNNFYPREAKVQWKVDNALQSGNSQESVTEQDSKDSTYSLSSTLTLSKADYEKHKVYACEVTHQGLSSPVTKSFNRGEC | – | – | – | self-renewal and expansion of human AT2 cells (human AT2 cell organoid [2]; summary of organoid results): promotes the self-renewal and expansion of human AT2 cells; human AT2 cell organoid growth as organoid size (diameter) (human AT2 cell organoid [3]): expand AT2 organoids
5 | RSPO1: R-spondin 1, of a family of ligands that amplify Wnt signals (protein, UniProt Q2MKA7 21-263, looked up) R-spondin-1: SRGIKGKRQRRISAEGSQACAKGCELCSEVNGCLKCSPKLFILLERNDIRQVGVCLPSCPPGYFDARNPDMNKCIKCKIEHCEACFSHNFCTKCKEGLYLHKGRCYPACPEGSSAANGTMECSSPAQCEMSEWSPWGPCSKKQQLCGFRRGSEERTRRVLHAPVGDHAACSDTKETRRCTVRRVPCPEGQKRRKGGQGRRENANRNLARKESKEAGAGSRRRKGQQQQQQQGTVGPLTSAGPA | – | did not enhance human AT2 culture growth | – | –
